Source: publication PMC11306256

B1: GST-tagged recombinant Xenopus APE1, wild type [Xenopus laevis] / itself (parent)
chain: MPKRGKKEEVCAAEPQEDGNEPEVKKGKKGAGKAAKEPEPVVLYEDAPDNVTSADGKKYTLKISSWNVDGIRAWIKKQGLNWVREEDPHIMCLQEIKCAEKLLPPDVKDMPEYPHKYWACPDEKEGYSGVAMLCKDKPLNVTYGIGIEEHDKEGRVITAEFDSFFVIAAYIPNSSRGLVRLDYRQRWDVDFRAYLKGLDSKKPLILCGDLNVAHQEIDLKNPKTNKKTPGFTPQERQGFGELLAEGYLDSFRELYPDKPSAYTFWTYMMNARAKNVGWRLDYFVLSKALRPALCDCKIRSKVMGSDHCPITLLMAI

Variants of: B1
Assay: sucrose density gradient sedimentation, quantified immunoblot (self-association / oligomerization)
Settings: with itself; fraction #3 (low-mass peak, co-sediments with 75kD Conalbumin); n = 3; parent: 17; read off a plot

| percent of protein in gradient fraction | Variant |
| --- | --- |
| 23% | MPKRGKKEEVCAAEPQEDGNEPEVAAGKKGAGAAAKEPEPVVLYEDAPDNVTSADGKKYTLKISSWNVDGIRAWIKKQGLNWVREEDPHIMCLQEIKCAEKLLPPDVKDMPEYPHKYWACPDEKEGYSGVAMLCKDKPLNVTYGIGIEEHDKEGRVITAEFDSFFVIAAYIPNSSRGLVRLDYRQRWDVDFRAYLKGLDSKKPLILCGDLNVAHQEIDLKNPKTNKKTPGFTPQERQGFGELLAEGYLDSFRELYPDKPSAYTFWTYMMNARAKNVGWRLDYFVLSKALRPALCDCKIRSKVMGSDHCPITLLMAI [chain 1 K25A K26A K33A] |

Same assay, conditions: with itself; fraction #7 (high-mass oligomer peak of WT); n = 3; parent: 16; read off a plot

| percent of protein in gradient fraction | Variant |
| --- | --- |
| 6% | MPKRGKKEEVCAAEPQEDGNEPEVAAGKKGAGAAAKEPEPVVLYEDAPDNVTSADGKKYTLKISSWNVDGIRAWIKKQGLNWVREEDPHIMCLQEIKCAEKLLPPDVKDMPEYPHKYWACPDEKEGYSGVAMLCKDKPLNVTYGIGIEEHDKEGRVITAEFDSFFVIAAYIPNSSRGLVRLDYRQRWDVDFRAYLKGLDSKKPLILCGDLNVAHQEIDLKNPKTNKKTPGFTPQERQGFGELLAEGYLDSFRELYPDKPSAYTFWTYMMNARAKNVGWRLDYFVLSKALRPALCDCKIRSKVMGSDHCPITLLMAI [chain 1 K25A K26A K33A] |
